No end group written: not given here.

The target of this test is T1, recombinant chicken GHRH receptor (chicken).
T1 construct: Full-length cloned receptor; also called cGHRH receptor; cloned chicken GHRH receptor
T1 chain: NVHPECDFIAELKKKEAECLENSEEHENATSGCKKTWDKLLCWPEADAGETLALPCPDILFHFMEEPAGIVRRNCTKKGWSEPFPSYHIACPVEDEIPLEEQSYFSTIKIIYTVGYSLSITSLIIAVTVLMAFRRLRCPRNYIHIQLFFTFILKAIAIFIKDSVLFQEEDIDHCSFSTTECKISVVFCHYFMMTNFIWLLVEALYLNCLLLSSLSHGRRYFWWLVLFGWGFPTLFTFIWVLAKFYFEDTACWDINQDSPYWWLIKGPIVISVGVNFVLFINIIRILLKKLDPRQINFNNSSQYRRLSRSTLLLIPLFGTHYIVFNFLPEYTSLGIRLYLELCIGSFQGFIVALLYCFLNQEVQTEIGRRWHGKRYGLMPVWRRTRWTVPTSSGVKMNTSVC
The test can be described thus: competition with labeled hGHRH at recombinant chicken GHRH receptor.

B1: chicken GHRH polypeptide (asparagine^21), previously reported chicken GHRH (ligand)
peptide: HADGIFSKAYRKLLGQLSARNYLHSLMAKRVGGASSGLGDEAEPLS
modifications: not fully specified
notes: also called cGHRH(Asp^21); published polypeptide
Turning to B1, the binding result was “no binding”.

These data come from US7078514 (dated 2006).
